Changes are numbered by the printed parent chain. Names may count otherwise.
T1: biotinylated H4-derived unphosphorylated peptide TVTAMDVVYALKRQGRT
T1 chain: TVTAMDVVYALKRQGRT

B1: purified constitutively active E346K-Ack1 (HA-tagged) (protein)
chain: MQPEEGTGWLLELLSEVQLQQYFLRLRDDLNVTRLSHFEYVKNEDLEKIGMGRPGQRRLWEAVKRRKALCKRKSWMSKVFSGKRLEAEFPPHHSQSTFRKTSPAPGGPAGEGPLQSLTCLIGEKDLRLLEKLGDGSFGVVRRGEWDAPSGKTVSVAVKCLKPDVLSQPEAMDDFIREVNAMHSLDHRNLIRLYGVVLTPPMKMVTELAPLGSLLDRLRKHQGHFLLGTLSRYAVQVAEGMGYLESKRFIHRDLAARNLLLATRDLVKIGDFGLMRALPQNDDHYVMQEHRKVPFAWCAPESLKTRTFSHASDTWMFGVTLWEMFTYGQEPWIGLNGSQILHKIDKKGERLPRPEDCPQDIYNVMVQCWAHKPEDRPTFVALRDFLLEAQPTDMRALQDFEEPDKLHIQMNDVITVIEGRAENYWWRGQNTRTLCVGPFPRNVVTSVAGLSAQDISQPLQNSFIHTGHGDSDPRHCWGFPDRIDELYLGNPMDPPDLLSVELSTSRPPQHLGGVKKPTYDPVSEDQDPLSSDFKRLGLRKPGLPRGLWLAKPSARVPGTKASRGSGAEVTLIDFGEEPVVPALRPCAPSLAQLAMDACSLLDETPPQSPTRALPRPLHPTPVVDWDARPLPPPPAYDDVAQDEDDFEICSINSTLVGAGVPAGPSQGQTNYAFVPEQARPPPPLEDNLFLPPQGGGKPPSSAQTAEIFQALQQECMRQLQAPAGSPAPSPSPGGDDKPQVPPRVPIPPRPTRPHVQLSPAPPGEEETSQWPGPASPPRVPPREPLSPQGSRTPSPLVPPGSSPLPPRLSSSPGKTMPTTQSFASDPKYATPQVIQAPGPRAGPCILPIVRDGKKVSSTHYYLLPERPSYLERYQRFLREAQSPEEPTPLPVPLLLPPPSTPAPAAPTATVRPMPQAALDPKANFSTNNSNPGARPPPPRATARLPQRGCPGDGPEAGRPADKIQMAMVHGVTTEECQAALQCHGWSVQRAAQYLKVEQLFGLGLRPRGECHKVLEMFDWNLEQAGCHLLGSWGPAHHKR
B2: purified Ack1 (Examples 2 and 5) (protein)
chain: B1 chain with K346E

Columns and labels:
[1] = molecular target: purified H4 protein (Example 3), P62805
[2] = molecular target: T1, biotinylated H4-derived …
[3] = molecular target: purified histone H3 (Example 2), P68431

Row | Protein | in vitro kinase assay, immunoblot with pTyr51-H4 antibody [1] | in vitro kinase assay on immobilized peptide, ELISA with pY88-H4 antibodies [2] | in vitro kinase reaction, immunoblot with pTyr99-H3 antibody [3]
1 | B1 | When purified E346K-Ack1 and H4 were incubated, H4 was Tyr51-phosphorylated, however, Ack1 inhibitor AIM-100 abrogated H4 pTyr51-phosphorylation (FIG. 26B) |  | 
2 | B2 |  | Incubation of H4 peptide with WEE1 and Ack1 protein resulted in robust H4 Tyr88-phosphorylation | Ack1 directly phosphorylates histone H3 at Tyr99 (FIG. 23)

Reference: US20200018762
